Reference: US20230416345A1, “NEW TYPE II COLLAGEN BINDING PROTEINS” (Navigo Proteins GmbH, priority 2020, published 2023)

Columns and labels:
Assay type in all cases: binding
[1] = biological target: T1, 67B89 (domain of fibronectin) (Homo sapiens, UniProt P02751); assay: ELISA specificity vs 67B89
T1 construct: unrelated fibronectin domain EDB (67B89) could be observed; made in house; host or cells: E. coli
Description: (§1) High binding plates (Greiner, 781061) were immobilized with 2.5 μg/ml recombinant human collagen type II (h Col II, Chondrex, CHX-20051), rabbit collagen type II (rbCol II, prepared from rabbit eyes), porcine collagen type II (p Col II, prepared from porcine eyes), human collagen type I, (h Col I, Sigma, C5483-1MG), human collagen type V (h Col V, Abcam, ab7537), human collagen type III (h Col Ill, Abcam, ab7535) and 67B89 (domain of fibronectin, produced in E. coli) respectively over night at 4° C. ELISA-plates were washed 3 times with PBST (PBS+ 0.1% Tween) and blocked with 3% BSA/0.5% Tween/PBS 2 h at RT. After washing with PBST, dilution series of 1.1 μM to 7×10^−4 nM of dimers (CID 211999, CID 212000), dilution series of 100 nM to 7×10^−6 nM of tetramers (CID 212001 and CID 212704) and dilution series of 10 μM to 2 nM of dimer (CID 212705) were incubated on ELISA-plates 1 h at rt. Plates were washed with PBST and incubated with biotinylated anti-StrepTag-ab (Antikörper-online, ABIN1573895) with a dilution of 1:10.000 for 1 h at rt. The binding was visualized with a-rabbit-IgG-HRP (Sigma, A9169) with a dilution of 1:10.000 and as substrate TMB Plus von KEM EN TEC Diagnostic, Kat-Nr. 4395.

human collagen type III = biological target: T2, human collagen type III (Homo sapiens, UniProt P02461); assay: ELISA specificity vs human collagen type III
T2 construct: purchased Abcam ab7535
T2 sequence (P02461 154-1221 limits assumed): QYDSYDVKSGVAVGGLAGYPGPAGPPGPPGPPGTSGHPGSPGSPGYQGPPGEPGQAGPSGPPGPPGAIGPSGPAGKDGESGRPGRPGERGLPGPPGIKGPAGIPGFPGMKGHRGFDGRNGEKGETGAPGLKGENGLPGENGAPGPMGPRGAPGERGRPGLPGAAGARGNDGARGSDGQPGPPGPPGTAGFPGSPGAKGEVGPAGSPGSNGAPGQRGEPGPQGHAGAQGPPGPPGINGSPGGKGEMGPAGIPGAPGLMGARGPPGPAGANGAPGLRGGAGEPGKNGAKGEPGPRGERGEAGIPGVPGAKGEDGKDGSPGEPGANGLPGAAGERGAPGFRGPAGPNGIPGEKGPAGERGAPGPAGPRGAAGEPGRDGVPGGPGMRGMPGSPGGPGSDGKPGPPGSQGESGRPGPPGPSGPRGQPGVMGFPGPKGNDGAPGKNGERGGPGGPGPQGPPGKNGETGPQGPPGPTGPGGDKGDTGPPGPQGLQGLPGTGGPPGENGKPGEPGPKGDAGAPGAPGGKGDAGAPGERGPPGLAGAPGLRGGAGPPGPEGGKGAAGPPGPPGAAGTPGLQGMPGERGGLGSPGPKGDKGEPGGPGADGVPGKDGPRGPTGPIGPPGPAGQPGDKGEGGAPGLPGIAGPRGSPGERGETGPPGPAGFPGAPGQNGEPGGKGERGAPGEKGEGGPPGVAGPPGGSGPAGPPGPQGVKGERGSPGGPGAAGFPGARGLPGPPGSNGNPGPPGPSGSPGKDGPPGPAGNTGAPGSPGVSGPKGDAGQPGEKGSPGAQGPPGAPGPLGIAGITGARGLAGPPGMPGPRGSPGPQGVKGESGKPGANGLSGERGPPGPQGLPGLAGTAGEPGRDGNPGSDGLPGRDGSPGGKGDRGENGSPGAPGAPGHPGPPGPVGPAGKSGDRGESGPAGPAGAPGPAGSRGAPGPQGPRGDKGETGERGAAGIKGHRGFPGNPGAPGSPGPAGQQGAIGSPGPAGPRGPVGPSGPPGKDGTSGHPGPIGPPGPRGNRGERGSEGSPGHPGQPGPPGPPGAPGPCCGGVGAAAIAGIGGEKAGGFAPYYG
Description: as §1

[2] = biological target: T3, human collagen type V (h Col V) (Homo sapiens, UniProt P05997+P20908); assay: ELISA specificity vs human collagen type V
T3 construct: purchased Abcam ab7537
T3 sequence (P20908 38-1605 limits assumed): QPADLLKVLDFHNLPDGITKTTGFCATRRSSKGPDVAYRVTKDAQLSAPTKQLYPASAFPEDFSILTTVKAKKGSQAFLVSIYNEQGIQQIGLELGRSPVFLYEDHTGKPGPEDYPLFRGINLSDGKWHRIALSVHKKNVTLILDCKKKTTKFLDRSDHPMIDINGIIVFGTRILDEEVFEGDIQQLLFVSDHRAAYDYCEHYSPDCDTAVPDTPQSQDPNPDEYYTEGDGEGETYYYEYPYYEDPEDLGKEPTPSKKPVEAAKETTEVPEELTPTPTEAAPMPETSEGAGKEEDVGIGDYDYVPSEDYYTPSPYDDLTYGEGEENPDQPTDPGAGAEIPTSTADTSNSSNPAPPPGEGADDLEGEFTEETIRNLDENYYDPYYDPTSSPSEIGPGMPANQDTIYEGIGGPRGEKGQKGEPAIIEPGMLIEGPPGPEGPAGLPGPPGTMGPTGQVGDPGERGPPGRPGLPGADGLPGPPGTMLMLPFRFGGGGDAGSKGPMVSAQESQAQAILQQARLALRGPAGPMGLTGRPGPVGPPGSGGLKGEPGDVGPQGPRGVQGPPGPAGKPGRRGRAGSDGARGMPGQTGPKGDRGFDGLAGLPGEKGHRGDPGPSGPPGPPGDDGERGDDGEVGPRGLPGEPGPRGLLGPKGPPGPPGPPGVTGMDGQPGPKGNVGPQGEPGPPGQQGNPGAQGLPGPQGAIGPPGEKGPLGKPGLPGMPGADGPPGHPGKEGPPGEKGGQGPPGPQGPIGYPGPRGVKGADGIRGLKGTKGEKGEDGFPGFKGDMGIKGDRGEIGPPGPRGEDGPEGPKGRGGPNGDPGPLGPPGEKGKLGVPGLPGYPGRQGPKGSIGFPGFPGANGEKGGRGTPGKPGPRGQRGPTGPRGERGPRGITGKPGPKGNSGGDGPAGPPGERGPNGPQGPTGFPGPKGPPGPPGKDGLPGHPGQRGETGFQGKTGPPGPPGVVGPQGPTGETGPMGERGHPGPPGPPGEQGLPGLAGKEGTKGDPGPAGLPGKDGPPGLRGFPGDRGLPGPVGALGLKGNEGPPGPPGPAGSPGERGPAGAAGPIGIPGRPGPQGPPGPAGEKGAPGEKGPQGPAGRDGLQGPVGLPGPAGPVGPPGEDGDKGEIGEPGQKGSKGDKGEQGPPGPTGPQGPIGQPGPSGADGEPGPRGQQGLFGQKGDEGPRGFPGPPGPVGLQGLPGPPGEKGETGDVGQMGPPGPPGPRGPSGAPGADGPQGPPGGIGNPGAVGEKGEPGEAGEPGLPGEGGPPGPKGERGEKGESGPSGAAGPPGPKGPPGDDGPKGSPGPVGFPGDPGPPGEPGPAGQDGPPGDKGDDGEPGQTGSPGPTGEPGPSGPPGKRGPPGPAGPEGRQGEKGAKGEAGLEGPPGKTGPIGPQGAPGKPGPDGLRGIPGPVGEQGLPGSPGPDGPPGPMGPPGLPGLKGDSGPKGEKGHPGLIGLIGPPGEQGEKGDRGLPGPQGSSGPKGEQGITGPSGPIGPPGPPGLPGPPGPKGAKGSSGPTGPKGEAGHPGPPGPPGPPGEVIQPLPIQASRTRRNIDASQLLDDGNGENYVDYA
T3 sequence (P05997 27-1229 limits assumed): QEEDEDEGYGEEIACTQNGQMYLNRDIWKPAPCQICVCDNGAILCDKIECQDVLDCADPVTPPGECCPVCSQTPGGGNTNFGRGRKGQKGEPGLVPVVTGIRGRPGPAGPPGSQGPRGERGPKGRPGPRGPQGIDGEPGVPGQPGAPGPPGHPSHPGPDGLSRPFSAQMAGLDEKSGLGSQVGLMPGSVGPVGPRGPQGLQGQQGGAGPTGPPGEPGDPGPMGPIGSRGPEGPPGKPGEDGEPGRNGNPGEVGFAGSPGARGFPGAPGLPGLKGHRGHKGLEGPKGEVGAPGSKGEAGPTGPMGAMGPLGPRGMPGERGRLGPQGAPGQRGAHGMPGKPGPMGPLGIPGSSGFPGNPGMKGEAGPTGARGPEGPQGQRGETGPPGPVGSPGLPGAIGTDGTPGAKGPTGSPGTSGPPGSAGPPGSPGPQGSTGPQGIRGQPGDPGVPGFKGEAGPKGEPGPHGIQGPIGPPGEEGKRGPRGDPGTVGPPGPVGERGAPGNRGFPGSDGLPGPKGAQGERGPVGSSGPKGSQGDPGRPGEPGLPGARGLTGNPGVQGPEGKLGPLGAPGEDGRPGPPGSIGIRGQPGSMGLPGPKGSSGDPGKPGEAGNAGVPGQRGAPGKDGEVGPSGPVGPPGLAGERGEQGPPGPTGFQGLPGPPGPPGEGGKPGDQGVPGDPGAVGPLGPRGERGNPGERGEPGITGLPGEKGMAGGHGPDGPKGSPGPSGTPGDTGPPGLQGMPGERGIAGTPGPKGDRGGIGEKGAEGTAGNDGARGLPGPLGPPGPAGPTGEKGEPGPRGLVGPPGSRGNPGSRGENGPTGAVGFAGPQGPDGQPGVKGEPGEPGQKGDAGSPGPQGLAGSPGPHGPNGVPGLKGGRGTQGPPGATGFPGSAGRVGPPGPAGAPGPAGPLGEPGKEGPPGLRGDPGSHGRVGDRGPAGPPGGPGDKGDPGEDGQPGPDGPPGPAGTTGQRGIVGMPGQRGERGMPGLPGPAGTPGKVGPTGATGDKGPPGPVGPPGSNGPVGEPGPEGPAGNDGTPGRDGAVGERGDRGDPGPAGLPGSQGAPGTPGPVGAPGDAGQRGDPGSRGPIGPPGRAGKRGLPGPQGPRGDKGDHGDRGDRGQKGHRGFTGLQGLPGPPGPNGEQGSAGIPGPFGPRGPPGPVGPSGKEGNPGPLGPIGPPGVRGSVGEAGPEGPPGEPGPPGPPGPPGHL
Description: as §1

[3] = biological target: T4, recombinant human collagen type II (h Col II) (Homo sapiens, UniProt P02458); assay: KD-determination by ELISA vs human collagen type II; settings: type II collagen; tetramers: of different species
T4 construct: purchased Chondrex CHX-20051
T4 sequence (P02458 182-1241): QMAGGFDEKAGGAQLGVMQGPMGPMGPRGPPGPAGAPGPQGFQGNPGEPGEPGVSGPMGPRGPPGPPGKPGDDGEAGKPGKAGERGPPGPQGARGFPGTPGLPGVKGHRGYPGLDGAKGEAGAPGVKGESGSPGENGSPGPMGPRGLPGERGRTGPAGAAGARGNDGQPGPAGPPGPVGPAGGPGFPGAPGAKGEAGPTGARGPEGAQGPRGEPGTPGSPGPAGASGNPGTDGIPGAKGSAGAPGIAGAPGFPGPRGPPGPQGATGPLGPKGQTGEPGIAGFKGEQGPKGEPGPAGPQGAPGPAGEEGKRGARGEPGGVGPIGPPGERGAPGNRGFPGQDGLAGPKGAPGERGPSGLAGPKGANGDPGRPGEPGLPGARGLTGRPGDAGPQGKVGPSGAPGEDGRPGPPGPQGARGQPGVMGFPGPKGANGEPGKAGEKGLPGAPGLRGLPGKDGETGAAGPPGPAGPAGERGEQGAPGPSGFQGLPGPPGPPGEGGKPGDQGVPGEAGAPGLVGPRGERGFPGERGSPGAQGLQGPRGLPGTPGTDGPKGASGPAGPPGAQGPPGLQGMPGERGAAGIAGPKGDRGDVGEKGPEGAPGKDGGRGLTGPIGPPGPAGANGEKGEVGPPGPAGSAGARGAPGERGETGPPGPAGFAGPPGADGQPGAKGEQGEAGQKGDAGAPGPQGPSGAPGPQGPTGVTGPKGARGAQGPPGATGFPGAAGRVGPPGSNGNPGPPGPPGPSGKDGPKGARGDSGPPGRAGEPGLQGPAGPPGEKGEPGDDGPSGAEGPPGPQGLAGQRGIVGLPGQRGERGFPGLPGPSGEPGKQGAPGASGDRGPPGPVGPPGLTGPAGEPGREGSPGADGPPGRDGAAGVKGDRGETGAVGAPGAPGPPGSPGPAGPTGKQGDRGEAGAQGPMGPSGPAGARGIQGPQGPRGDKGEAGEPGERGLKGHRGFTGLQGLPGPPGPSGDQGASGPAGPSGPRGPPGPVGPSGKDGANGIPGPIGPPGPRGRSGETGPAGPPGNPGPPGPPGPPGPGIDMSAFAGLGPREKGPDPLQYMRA
Description: as §1

T1 sequence (P02751 1089-1540 limits assumed): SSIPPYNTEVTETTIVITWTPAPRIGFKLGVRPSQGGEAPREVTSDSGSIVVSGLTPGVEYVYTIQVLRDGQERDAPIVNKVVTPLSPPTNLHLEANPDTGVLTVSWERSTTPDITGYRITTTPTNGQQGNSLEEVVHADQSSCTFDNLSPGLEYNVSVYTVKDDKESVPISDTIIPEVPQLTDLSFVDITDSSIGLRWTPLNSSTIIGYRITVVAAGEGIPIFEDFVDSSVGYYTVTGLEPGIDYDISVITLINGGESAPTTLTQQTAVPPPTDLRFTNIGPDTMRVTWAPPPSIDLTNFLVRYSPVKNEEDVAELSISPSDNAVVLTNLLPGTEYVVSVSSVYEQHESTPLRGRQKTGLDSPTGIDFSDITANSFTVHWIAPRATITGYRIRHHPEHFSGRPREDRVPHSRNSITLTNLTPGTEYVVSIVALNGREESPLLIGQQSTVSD

binding to domain of fibronectin (67B89) (ELISA) [1]: No unspecific binding | binding to type III collagen (ELISA) (human collagen type III): No unspecific binding | binding to type V collagen (ELISA) [2]: No unspecific binding | binding affinity (KD) to type II collagen by ELISA, in words [3]: 1-2-digit nM
B1: CID 212000: dimer of SEQ ID NO: 2 (dimer with linker between the monomers) (protein)
chain: IAAKFDEAQSAADSEILHLPNLTEQQRHYFRRWLSDDPSVSTHILTQAQHLNDDQAPKGGGGSGGGGSGGGGSGGGGSIAAKFDEAQSAADSEILHLPNLTEQQRHYFRRWLSDDPSVSTHILTQAQHLNDDQAPKSAWSHPQFEK
modifications: Col2 binding protein (dimer of 211261) (CID212000)
